Test results published in patent US20040120923A1.

Legend:
IL-18BP (human) = IL-18BP (human) (UniProt O95998); assay: cell-based or functional assay
IL-18 (human) = IL-18 (human) (UniProt Q14116); assay: cell-based or functional assay
Sequence of IL-18 (human) (Q14116 37-193 limits assumed): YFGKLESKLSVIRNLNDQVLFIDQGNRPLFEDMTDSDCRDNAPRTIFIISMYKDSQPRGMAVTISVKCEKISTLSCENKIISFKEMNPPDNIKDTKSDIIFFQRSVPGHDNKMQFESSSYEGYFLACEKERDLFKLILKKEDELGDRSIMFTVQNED

Sequence of IL-18BP (human) (O95998 31-194): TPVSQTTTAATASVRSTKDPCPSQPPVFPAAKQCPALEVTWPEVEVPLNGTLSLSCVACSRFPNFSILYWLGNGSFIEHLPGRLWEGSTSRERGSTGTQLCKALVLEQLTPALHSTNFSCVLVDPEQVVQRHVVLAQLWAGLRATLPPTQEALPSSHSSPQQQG

Substance	activity of IL-18 (IFNγ release by NKO cells, %) at 3.12 ng/ml of IL-18BP with mature IL-1F7b 250 ng/ml (IL-18BP (human))	activity of IL-18 (IFNγ release by NKO cells, %) at 6.25 ng/ml of IL-18BP with mature IL-1F7b 250 ng/ml (IL-18BP (human))	further decrease in activity of IL-18 at 3.12 ng/ml of IL-18BP with mature IL-1F7b (IL-18BP (human))	further decrease in activity of IL-18 at 6.25 ng/ml of IL-18BP with mature IL-1F7b (IL-18BP (human))	activity of IL-18 (IFNγ release by NKO cells, % of IL-18 25 ng/ml plus IL-12 without IL-18BP or IL-1F7b) at 3.12 ng/ml of IL-18BP, without IL-1F7b (IL-18 (human))	activity of IL-18 (IFNγ release by NKO cells, % of IL-18 25 ng/ml plus IL-12 without IL-18BP or IL-1F7b) at 6.25 ng/ml of IL-18BP, without IL-1F7b (IL-18 (human))
mature IL-1F7b (N-terminus E21) (from UniProt Q9NZH6 21-218) (ligand)	40%	55%	19%	21%	–	–
IL-18BP (from UniProt O95998 31-194) (receptor)	–	–	–	–	59%	76%
